Data from paper PMC12436618.

Target: KIF1A-201(1-482)-His (mouse)
Assay: SEC; Superdex 200 Increase 10/300 GL; 250 µg of each protein at about 1.2 µg/µl; 20 mM PIPES-KOH pH 7.0, 150 mM KCl, 1 mM MgCl2, 0.1% Tween 20; size from a calibration curve of globular standards; monomer to dimer

- stoichiometry N: 2
Substance: KIF1A-201(1-482)-His (domain or fragment)
